From patent publication US12366576B2, “Compositions, assays, and methods for direct modulation of fatty acid metabolism” (Dana-Farber Cancer Institute, Inc., priority 2016, dated 2025)
Bridge positions count the residues as written; N and C are the ends. Square brackets hold non-standard residues; d marks the D form. Ends that are not written are not given here. S5 = C=CCCC[C@](C)(N)C(=O)O

Legend:
MCL-1ΔNΔC = molecular target: T1, MCL-1ΔNΔC (Homo sapiens, UniProt Q07820); assay: 19F NMR binding study with fluorinated SAHB; conditions: fluorinated SAHB 25 μM, MCL-1ΔNΔC 0-45 μM
T1 construct: The MCL-1ΔNΔC construct was grown and expressed in E. coli as previously described; made in house; host or cells: E. coli BL21(DE3)
Experimental: To measure the direct binding interaction, ^19F NMR binding studies were conducted using fluorinated analogs of MCL-1 SAHBD. […] Both SAHBs, however, bind MCL-1ΔNΔC, as illustrated by a chemical shift of the peptide NMR peak in both cases (FIG. 15). […] To perform these experiments, N-terminal Btn-PEG analogs of the peptides were immobilized onto streptavidin probes that were then placed into protein solutions at a variety of concentrations to measure ligand-target association.
MCL-1ΔNΔC. The MCL-1ΔNΔC construct was grown and expressed in E. coli as previously described (see, e.g., Stewart, Nat Chem Biol., 6(6):595-601 (2010)). Transformed BL21(DE3) E. coli were grown at 37° C. to an OD of 0.8, after which they were induced with 0.5 mM IPTG. […]
To determine binding of SAHBs to VLCAD, fluorinated SAHB (25 μM) and VLCAD (0-125 μM) were mixed together in VLCAD FPLC buffer including 10% D2O to a final volume of 500 μL. […] The extent to which VLCAD bound the peptide was determined by measuring the peak width at half height (ν1/2) of the peptide ^19F signal. […] MCL-1ΔNΔC binding to SAHBs causes a change in the ^19F chemical shift of the peptide resulting in two peptide signals (instead of peak broadening), so extent of binding was quantified by measuring the peak height of “unbound” peptide relative to the bound peptide signal.

CreER^T2 MEFs = assay: MS-based acylcarnitine quantification in MEFs; format: cell-based, mouse; conditions: 10 μM
MCAD = molecular target: T2, MCAD (Mus musculus, UniProt P45952); assay: Biotinylated SAHB pulldown from MEF lysates, MCAD Western analysis; format: binding; conditions: wild-type MEF lysates
T2 construct: endogenous in cells; host or cells: wild-type mouse embryonic fibroblasts (lysate)
T2 sequence (P45952 26-421): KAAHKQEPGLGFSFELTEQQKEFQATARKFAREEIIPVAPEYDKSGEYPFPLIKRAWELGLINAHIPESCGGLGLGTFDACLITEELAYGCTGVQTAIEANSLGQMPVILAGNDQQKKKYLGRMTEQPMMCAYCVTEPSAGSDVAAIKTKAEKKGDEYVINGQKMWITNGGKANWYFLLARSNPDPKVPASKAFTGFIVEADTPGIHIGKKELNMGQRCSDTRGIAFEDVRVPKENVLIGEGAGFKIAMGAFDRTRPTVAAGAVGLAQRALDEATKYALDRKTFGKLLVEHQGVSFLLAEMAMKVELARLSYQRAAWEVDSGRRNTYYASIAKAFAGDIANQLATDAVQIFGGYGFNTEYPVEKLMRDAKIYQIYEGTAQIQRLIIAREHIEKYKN
From the text: To validate the MS result, the pulldowns were repeated and eluates run on a gel for anti-VLCAD Western blot analysis. […] All peptides faithfully recapitulated native BH3-binding propensities for endogenous MCL-1 protein (FIG. 8). The eluates were then probed for the other members of the acyl-CoA dehydrogenase family that manifest shorter fatty acid substrate specificities. MCL-1 SAHBD was able to pull down VLCAD, but not MCAD or SCAD (FIG. 9). Because the traditional MCL-1 staple location differs from that of the BIM, BID, and BAD SAHBs, it was important to confirm that the observed VLCAD binding specificity was due to BH3 sequence selectivity, not staple position. A BIM SAHB with the traditional MCL-1 staple (BIM SAHBF), and a MCL-1 stapled peptide with the traditional BIM staple (MCL-1 SAHBA), were generated. […]
Wild-type MEFs were trypsinized, washed once with cold PBS, and lysed on ice with NP-40 lysis buffer (50 mM Tris, pH 7.4, 150 mM NaCl, 0.5% (v/v) NP-40, complete protease inhibitor pellet (Roche)) using 1 ml of lysis buffer for every 10 million cells lysed. Cellular debris was pelleted at 14,000 g for 10 min at 4° C., and the supernatant was quantified using the BCA Protein Assay Kit (Thermo Fisher Scientific). […]

T1 sequence (Q07820 172-320 limits assumed, stated change not applied): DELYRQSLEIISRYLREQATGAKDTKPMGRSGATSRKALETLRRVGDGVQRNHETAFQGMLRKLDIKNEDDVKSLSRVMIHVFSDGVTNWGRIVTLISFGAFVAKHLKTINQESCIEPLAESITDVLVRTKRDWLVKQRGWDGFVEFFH

Question: For “MCL-1 SAHBD: hydrocarbon-stapled peptide mimicking the MCL-1 BH3 domain (Stabilized Alpha-Helix of BCL-2 Domain), SEQ ID NO:19 (RKALETLRRVGDGV[S5]RNH[S5]TAF; staple 15-19)”, which “19F NMR binding to MCL-1ΔNΔC (chemical shift of the peptide peak)” value (MCL-1ΔNΔC) is on record?
Answer: Its value is “binds directly”.

Question: And the “levels of very long-chain acylcarnitines relative to vehicle-treated control” value (CreER^T2 MEFs; Mcl-1^F/F CreER^T2 MEFs not exposed to tamoxifen, 48 hours)?
Answer: The value was “elevated levels”.

Question: And the “effect on already elevated acylcarnitine levels” value (CreER^T2 MEFs; Mcl-1^F/F CreER^T2 MEFs subjected to tamoxifen (Mcl-1 deleted))?
Answer: Its value is “no effect”.

Question: What about the “pull down of MCAD from cellular lysates” value (MCAD) of the same substance?
Answer: Its value is “not”.
